Values quoted from earlier work, collected in publication PMC3139910.

Target: CCR7 (Homo sapiens) (UniProt P32248)
Sequence of UniProt P32248 (P32248 25-378): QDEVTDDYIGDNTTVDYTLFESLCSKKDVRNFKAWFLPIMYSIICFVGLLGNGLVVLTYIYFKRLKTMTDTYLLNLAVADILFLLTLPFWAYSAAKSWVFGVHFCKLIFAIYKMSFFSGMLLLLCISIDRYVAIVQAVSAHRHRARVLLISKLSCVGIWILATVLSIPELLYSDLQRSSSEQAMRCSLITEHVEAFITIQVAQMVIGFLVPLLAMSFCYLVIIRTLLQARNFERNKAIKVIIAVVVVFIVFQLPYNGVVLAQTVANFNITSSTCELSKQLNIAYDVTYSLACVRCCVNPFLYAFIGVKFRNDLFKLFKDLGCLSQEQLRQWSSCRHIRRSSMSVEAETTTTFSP

Question: Which Kd does the source give for CCL21 (from UniProt O00585) here?
Answer: 5 nM
